According to patent US20230013244A1 (BioIncept, LLC, priority 2014, published 2023):

Tests used:
Assay in all cases: PIF affinity column + LC-MS/MS, CD14+ cell lysate
Calreticulin (human) = Calreticulin (human) (UniProt P27797)
[1] = molecular target: Isoform 2 of Heat shock protein HSP 90-alpha (human) (UniProt P07900)
[2] = molecular target: Isoform Short of 14-3-3 protein beta/alpha (human) (UniProt P31946)
[3] = molecular target: Isoform SV of 14-3-3 protein epsilon (human) (UniProt P62258)
[4] = molecular target: Lymphocyte-specific protein 1 (human) (UniProt P33241)
[5] = molecular target: Protein disulfide-isomerase A4 (human) (UniProt P13667)
[6] = molecular target: 78 kDa glucose-regulated protein (human) (UniProt P11021)
Vimentin (human) = Vimentin (human) (UniProt P08670)
[7] = molecular target: Bridging integrator 2 (human) (UniProt Q9UBW5)
[8] = molecular target: Actinin alpha 1 isoform 3 (human) (UniProt P12814)
[9] = molecular target: Isoform 2 of Adenylyl cyclase-associated protein 1 (human) (UniProt Q01518)
[10] = molecular target: Nuclear autoantigenic sperm protein (human) (UniProt P49321)
Annexin A1 (human) = Annexin A1 (human) (UniProt P04083)
[11] = molecular target: Tropomyosin alpha-3 chain (human) (UniProt P06753)
[12] = molecular target: 14-3-3 protein zeta/delta (human) (UniProt P63104)
Protein S100-A8 (human) = Protein S100-A8 (human) (UniProt P05109)
Chain of Protein S100-A8 (human) (P05109 whole entry): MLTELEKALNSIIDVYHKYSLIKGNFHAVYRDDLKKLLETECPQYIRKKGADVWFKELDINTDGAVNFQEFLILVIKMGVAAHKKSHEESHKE

Plastin-2 (human) = Plastin-2 (human) (UniProt P13796)
Hornerin (human) = Hornerin (human) (UniProt Q86YZ3)
Chain of Hornerin (human) (Q86YZ3 whole entry): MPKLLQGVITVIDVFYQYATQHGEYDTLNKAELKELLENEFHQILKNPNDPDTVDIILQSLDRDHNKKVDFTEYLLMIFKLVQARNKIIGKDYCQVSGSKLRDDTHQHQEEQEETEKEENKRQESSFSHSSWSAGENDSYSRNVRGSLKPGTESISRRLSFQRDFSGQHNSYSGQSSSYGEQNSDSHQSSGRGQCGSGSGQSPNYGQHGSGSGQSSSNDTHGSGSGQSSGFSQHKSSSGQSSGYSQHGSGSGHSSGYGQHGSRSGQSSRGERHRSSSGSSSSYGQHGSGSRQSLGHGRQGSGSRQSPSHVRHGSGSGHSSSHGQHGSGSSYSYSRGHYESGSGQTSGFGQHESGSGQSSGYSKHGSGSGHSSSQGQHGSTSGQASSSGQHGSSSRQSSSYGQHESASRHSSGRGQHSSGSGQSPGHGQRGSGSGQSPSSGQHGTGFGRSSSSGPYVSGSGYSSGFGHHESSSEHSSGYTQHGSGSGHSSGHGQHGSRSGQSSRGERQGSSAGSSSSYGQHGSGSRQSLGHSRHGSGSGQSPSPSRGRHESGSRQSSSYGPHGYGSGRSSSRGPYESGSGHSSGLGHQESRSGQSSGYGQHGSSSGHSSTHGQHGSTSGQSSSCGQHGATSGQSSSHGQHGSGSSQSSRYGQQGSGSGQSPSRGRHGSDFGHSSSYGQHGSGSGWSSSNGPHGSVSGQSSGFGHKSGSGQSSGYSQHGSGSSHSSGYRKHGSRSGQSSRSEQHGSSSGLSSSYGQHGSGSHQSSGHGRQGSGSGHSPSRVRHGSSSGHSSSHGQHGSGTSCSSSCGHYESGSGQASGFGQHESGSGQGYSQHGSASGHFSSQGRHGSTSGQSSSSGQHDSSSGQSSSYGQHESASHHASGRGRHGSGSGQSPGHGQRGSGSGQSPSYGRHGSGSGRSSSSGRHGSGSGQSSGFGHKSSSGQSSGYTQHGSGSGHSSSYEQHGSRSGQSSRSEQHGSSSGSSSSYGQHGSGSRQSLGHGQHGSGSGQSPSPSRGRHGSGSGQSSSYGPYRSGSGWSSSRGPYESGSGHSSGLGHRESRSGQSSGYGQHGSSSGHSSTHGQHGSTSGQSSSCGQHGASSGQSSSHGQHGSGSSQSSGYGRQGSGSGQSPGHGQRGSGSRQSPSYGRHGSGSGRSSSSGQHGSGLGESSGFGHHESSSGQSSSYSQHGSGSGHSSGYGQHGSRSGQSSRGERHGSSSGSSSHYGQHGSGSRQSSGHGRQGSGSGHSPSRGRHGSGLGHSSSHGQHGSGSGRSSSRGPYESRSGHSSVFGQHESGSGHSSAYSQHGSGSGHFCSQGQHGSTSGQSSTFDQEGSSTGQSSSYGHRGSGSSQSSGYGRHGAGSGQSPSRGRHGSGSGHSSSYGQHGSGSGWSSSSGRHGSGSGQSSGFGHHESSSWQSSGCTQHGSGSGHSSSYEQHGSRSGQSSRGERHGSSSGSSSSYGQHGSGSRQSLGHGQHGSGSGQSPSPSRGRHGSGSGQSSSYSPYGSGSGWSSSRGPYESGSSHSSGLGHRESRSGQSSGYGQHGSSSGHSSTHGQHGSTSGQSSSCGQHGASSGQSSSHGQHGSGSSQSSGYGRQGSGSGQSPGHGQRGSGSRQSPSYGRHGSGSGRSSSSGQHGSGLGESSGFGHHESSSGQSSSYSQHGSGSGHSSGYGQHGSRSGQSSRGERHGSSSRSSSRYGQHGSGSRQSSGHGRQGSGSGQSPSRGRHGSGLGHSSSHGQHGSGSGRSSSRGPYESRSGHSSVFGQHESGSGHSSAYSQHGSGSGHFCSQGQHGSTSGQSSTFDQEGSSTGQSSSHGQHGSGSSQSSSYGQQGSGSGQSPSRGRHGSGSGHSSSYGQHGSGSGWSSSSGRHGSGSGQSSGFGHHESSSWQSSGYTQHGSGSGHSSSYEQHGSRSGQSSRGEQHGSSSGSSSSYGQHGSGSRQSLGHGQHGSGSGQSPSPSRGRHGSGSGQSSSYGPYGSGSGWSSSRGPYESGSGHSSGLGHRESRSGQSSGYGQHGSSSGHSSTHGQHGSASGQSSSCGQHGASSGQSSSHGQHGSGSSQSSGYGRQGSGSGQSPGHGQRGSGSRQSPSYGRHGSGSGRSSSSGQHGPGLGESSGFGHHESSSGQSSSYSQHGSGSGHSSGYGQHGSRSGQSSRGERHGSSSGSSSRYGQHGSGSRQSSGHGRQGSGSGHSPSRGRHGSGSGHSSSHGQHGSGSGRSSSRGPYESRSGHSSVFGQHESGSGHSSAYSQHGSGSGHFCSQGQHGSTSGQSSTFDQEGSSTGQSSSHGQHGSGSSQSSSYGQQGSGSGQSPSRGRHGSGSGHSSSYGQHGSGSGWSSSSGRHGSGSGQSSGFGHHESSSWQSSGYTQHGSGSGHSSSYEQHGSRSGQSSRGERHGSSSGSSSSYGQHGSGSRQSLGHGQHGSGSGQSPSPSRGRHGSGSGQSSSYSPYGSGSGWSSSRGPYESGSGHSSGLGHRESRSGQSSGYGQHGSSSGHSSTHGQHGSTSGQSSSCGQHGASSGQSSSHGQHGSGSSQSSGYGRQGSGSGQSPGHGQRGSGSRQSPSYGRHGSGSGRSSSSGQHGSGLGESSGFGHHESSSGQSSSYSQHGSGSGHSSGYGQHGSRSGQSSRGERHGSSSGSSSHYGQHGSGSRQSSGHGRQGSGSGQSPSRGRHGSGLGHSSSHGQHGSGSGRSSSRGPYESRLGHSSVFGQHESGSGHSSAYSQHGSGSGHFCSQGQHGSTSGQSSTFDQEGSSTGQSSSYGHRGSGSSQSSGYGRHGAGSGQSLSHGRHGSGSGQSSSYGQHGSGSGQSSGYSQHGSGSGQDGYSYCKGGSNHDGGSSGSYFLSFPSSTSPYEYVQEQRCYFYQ

Thymosin alpha-1 (human) = Thymosin alpha-1 (human) (UniProt P06454)
Thrombospondin-1 (human) = Thrombospondin-1 (human) (UniProt P07996)
Talin-1 (human) = Talin-1 (human) (UniProt Q9Y490)
Endoplasmin (human) = Endoplasmin (human) (UniProt P14625)
[13] = molecular target: 14-3-3 protein eta (human) (UniProt Q04917)
Chain of 14-3-3 protein eta (human) (Q04917 2-246 limits assumed): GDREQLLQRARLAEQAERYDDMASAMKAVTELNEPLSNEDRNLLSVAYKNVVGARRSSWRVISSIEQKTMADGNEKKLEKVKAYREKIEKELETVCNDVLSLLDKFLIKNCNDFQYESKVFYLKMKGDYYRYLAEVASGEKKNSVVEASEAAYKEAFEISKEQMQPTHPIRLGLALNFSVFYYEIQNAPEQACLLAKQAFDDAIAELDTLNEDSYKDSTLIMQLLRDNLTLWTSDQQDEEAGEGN

Coronin-1A (human) = Coronin-1A (human) (UniProt P31146)
Myosin-9 (human) = Myosin-9 (human) (UniProt P35579)
Chain of Myosin-9 (human) (P35579 2-1960 limits assumed): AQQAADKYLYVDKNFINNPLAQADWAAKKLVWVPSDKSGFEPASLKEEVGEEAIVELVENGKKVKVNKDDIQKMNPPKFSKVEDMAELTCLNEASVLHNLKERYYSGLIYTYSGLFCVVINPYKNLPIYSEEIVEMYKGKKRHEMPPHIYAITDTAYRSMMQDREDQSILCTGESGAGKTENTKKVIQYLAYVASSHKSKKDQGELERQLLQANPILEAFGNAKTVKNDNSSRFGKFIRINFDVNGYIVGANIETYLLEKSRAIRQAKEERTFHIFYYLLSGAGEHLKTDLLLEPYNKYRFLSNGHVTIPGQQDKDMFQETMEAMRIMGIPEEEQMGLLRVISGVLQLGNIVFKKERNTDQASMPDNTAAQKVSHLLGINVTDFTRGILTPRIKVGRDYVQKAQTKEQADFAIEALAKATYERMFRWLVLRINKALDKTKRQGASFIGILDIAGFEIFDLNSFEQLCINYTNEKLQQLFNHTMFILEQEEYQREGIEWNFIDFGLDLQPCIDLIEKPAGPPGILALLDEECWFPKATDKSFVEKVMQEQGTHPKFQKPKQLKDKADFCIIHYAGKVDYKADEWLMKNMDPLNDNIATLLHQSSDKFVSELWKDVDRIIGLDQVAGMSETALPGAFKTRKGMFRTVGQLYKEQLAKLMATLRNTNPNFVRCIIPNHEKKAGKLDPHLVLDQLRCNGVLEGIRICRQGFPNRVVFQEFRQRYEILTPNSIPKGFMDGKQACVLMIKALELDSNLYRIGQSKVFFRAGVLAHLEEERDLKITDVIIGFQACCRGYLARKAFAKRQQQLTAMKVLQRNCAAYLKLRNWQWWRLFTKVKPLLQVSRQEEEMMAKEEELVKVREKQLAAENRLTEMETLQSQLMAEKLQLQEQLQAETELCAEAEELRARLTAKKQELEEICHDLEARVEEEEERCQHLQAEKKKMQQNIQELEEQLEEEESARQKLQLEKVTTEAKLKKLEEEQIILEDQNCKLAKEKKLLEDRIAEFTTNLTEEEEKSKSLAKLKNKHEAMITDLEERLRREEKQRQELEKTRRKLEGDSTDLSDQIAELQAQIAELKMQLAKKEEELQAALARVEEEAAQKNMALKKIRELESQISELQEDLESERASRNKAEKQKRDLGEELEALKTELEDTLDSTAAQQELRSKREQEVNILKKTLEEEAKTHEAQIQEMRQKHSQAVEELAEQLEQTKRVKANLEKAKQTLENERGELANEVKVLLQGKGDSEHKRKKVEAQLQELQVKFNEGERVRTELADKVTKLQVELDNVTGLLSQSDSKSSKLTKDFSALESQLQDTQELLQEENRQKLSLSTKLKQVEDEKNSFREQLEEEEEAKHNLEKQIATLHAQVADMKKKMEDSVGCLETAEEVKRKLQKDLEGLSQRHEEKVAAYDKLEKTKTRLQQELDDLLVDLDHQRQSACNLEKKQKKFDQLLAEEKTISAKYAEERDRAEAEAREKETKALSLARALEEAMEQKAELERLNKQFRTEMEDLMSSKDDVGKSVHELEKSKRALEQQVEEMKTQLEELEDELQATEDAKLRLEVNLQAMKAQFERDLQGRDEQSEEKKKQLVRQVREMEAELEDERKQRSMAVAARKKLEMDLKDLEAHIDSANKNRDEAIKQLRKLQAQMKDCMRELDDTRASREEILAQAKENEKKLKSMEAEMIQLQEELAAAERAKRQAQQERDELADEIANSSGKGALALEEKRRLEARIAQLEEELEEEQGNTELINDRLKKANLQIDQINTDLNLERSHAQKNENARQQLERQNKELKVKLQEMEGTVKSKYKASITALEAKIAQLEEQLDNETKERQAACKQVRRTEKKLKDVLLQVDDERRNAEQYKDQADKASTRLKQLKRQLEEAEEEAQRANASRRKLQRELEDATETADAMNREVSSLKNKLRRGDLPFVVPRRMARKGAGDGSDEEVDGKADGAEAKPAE

[14] = molecular target: Heat shock protein HSP 90-beta (human) (UniProt P08238)
[15] = molecular target: Isoform 2 of Ras suppressor protein 1 (human) (UniProt Q15404)
Matrin-3 (human) = Matrin-3 (human) (UniProt A8MXP9)
[16] = molecular target: 14-3-3 protein theta (human) (UniProt P27348)
[17] = molecular target: Actin, cytoplasmic 2 (human) (UniProt P63261)
Gelsolin (human) = Gelsolin (human) (UniProt P06396)

## PIF-resin (PIF15 affinity ligand on agarose) (peptide)
Calreticulin (human)
  Inject 2: 4
[1]
  Ave: 1
  Inject 1: 1
  Inject 3: 1
[2]
  Inject 3: 4
[3]
  Inject 1: 4
  Inject 2: 4
[4]
  Inject 1: 4
  Inject 3: 1
[5]
  Inject 1: 4
  Inject 2: 1
[6]
  Ave: 4
Vimentin (human)
  Ave: 10
  Inject 1: 9
  Inject 2: 11
  Inject 3: 9
[7]
  Ave: 1
  Inject 1: 1
  Inject 3: 0
[8]
  Ave: 4
  Inject 1: 5
  Inject 2: 4
[9]
  Inject 1: 4
[10]
  Ave: 1
  Inject 2: 0
  Inject 3: 1
Annexin A1 (human)
  Ave: 1
  Inject 1: 0
  Inject 2: 0
[11]
  Ave: 4
  Inject 1: 4
  Inject 3: 5
[12]
  Ave: 4
  Inject 1: 4
  Inject 3: 4
Protein S100-A8 (human)
  Inject 2: 1
Plastin-2 (human)
  Ave: 1
  Inject 1: 1
  Inject 2: 1
Hornerin (human)
  Ave: 1
  Inject 1: 1
  Inject 2: 0
Thymosin alpha-1 (human)
  Ave: 5
  Inject 1: 5
  Inject 2: 5
  Inject 3: 4
Thrombospondin-1 (human)
  Inject 2: 5
  Inject 3: 8
Talin-1 (human)
  Inject 1: 5
  Inject 3: 8
Endoplasmin (human)
  Ave: 1
  Inject 1: 0
  Inject 3: 1
[13]
  Ave: 1
  Inject 1: 1
  Inject 2: 1
Coronin-1A (human)
  Inject 3: 1
Myosin-9 (human)
  Ave: 10
  Inject 1: 11
  Inject 2: 9
  Inject 3: 10
[14]
  Ave: 1
  Inject 2: 1
  Inject 3: 1
[15]
  Ave: 1
  Inject 1: 0
  Inject 2: 1
Matrin-3 (human)
  Ave: 1
  Inject 1: 1
  Inject 3: 1
[16]
  Ave: 1
  Inject 1: 1
  Inject 2: 1
[17]
  Ave: 7
  Inject 1: 6
  Inject 2: 7
  Inject 3: 7
Gelsolin (human)
  Inject 2: 1
  Inject 3: 1
